From PMC9426492, “TrmB Family Transcription Factor as a Thiol-Based Regulator of Oxidative Stress Response” (mBio, 2022) come the findings set out here.

The data set concerns the molecule itself. The data set can be described thus: non-reducing SDS-PAGE (intersubunit disulfide bond assay); purified StrepII-tagged protein dialysed overnight in 100 mM Tris-Cl pH 7.5, 2 M NaCl; no reducing reagent; diluted 1:1 in SDS-loading buffer, boiled 10 min, 16% SDS-PAGE, Coomassie stain; shows only covalently (disulfide) linked subunits.

B1: OxsR (HVO_2970) wild type with a C-terminal StrepII tag (natural protein, Haloferax volcanii, UniProt D4GY41 1-123, looked up)
chain: MADAPDMGELMETEDPNFGQVLACVFGIQSHESRTYLALLDNPGSTVAELAEVLDRDRSNVNRSLTTLLDKGLTERKRRLLDPGGYVYQYTATPLPEAKEMMHAALDEWAEDVHARIDAFGES
notes: 123 aa, 14 kDa; UniProtKB D4GY41; also called OxsR-StrepII; OxsR wt; source: H. volcanii SH125 (H26 ΔoxsR) carrying pJAM4019, purified (Strep-Tactin Superflow Plus resin, 2 M NaCl buffers); not shown: StrepII, C-terminal, kept
B1: the binding result is “binds”.
